Measurements as given in patent US20230235068A1.

Biological target: extracellular domain portion of LEPR protein expressed with a C-terminal human Fc tag (human)
Test: competition ELISA, 10 nM hLEPR-hFc binding to coated hLeptin; soluble hLeptin as competitor

extracellular domain portion of LEPR protein expressed with a C-terminal human Fc tag (human), sequence (chain, as listed by the source limits assumed): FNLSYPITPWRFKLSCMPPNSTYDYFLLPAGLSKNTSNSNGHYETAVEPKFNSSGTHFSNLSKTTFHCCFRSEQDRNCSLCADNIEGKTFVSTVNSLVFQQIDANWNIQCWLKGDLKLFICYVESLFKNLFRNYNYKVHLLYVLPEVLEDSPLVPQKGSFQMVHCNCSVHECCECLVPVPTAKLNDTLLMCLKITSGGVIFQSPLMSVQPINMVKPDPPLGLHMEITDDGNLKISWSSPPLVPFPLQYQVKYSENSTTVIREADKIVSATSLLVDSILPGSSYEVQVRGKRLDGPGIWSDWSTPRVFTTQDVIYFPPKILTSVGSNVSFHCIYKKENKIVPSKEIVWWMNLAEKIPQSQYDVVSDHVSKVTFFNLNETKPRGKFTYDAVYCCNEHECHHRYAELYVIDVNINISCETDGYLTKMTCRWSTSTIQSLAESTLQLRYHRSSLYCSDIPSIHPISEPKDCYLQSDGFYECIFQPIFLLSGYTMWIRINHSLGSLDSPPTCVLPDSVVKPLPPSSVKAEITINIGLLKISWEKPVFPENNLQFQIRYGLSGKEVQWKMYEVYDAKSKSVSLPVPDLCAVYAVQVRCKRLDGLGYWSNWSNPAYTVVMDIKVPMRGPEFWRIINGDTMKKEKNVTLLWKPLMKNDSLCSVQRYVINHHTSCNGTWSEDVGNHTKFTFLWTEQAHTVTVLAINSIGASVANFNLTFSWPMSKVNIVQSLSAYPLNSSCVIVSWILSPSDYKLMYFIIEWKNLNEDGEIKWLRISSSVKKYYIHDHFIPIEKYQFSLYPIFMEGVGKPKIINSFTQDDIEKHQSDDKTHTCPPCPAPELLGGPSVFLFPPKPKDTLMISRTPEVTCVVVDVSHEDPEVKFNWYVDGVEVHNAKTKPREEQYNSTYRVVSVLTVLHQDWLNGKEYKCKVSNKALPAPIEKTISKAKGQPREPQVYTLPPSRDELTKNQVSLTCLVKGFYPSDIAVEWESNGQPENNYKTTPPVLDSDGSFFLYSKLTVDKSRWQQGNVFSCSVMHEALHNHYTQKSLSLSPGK

**Q.** With “human Leptin (from UniProt P41159 22-167) (ligand)” as the substance, how does the % blockade at 500 nM read?
**A.** The % blockade at 500 nM was 99%.
